Test results from patent US20260125454A1 (SHANGHAI JUNSHI BIOSCIENCES, published 2026).

T1: Biotin-huCGRPaSA (human, not fully specified; biotin (position not given))
T1 construct: exact construct ('aSA') not explained; also called Biotin CGRPaSA; full-length (1-37) CGRP
T1 peptide: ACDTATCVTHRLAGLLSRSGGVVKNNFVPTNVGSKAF


Biological target: T1, Biotin-huCGRPaSA
Test: ELISA, supernatant; relative to chimeric C245
Method: Biotin CGRPaSA was diluted with PBS (Hyclone) to 1.0 μg/mL, and the dilution was added to a microplate at 100 μL/well. The plate was let stand in an incubator at 37° C. and coated for 90 min and then washed, and 2% BSA was added to the plate at 200 μL/well. The plate was incubated in an incubator at 37° C. for 90 min and then washed. The humanized antibodies in Table 8 and the reference antibody (chimeric antibody C245) were diluted to 1000 ng/mL with a diluent (2% BSA) with a dilution factor of not more than 10. Then, the chimeric antibodies and the reference antibody were serially 2.5-fold diluted on a sample dilution plate. All the chimeric antibody solutions and the reference antibody solution were added into plates at 100 μL/well, and the plates were incubated in a thermostat incubator at 37° C. for 60 min and washed. An HRP-conjugated goat anti-human antibody IgG (manufacturer: Sigma, Cat. No. A0170; Fc specificity) was diluted 5000-fold with 2% BSA and added into the plates at 100 μL/well, and the plates were incubated in the thermostat incubator at 37° C. for 60 min and washed. Chromogenic reagent TMB was carefully added at 100 μL/well to avoid bubbles, and the system was incubated at 37° C. for 15 min away from light for chromogenic reaction. Finally, a 2 M hydrochloric acid solution was added at 100 μL/well to stop the reaction while avoiding bubbles, and the plates were read on a microplate reader within 10 min (wavelength: 450/620 nm).

Row | Binder | Relative binding activity, % [%]
1 | hu215 (antibody, V domains shown, 3H10 HC-2/1F5 LC1-3) VH: QVQLVQSGAEVKKPGASVKVSCKASGYTFTDYNMHWVRQAPGQGLEWMGYIYPYNGHTVYNQKFRNRVTLTVDTSSSTAYMELRSLRSDDTAVYYCAREGLGGYWGQGTLVTVSS VL: DIVLTQSPASLAVSPGQRATITCKASQNIDFDGYAYMNWYQQKPGQPPKVLIYSVFNLESGVPARFSGSGSGTDFTLTINPVEADDTANYYCQQSHEVPYTFGQGTKLEIK | 94
2 | hu213 (antibody, V domains shown, 3H10 HC-2/1F5 LC1-1) VH: QVQLVQSGAEVKKPGASVKVSCKASGYTFTDYNMHWVRQAPGQGLEWMGYIYPYNGHTVYNQKFRNRVTLTVDTSSSTAYMELRSLRSDDTAVYYCAREGLGGYWGQGTLVTVSS VL: EIVLTQSPATLSLSPGERATLSCKASQNIDFDGYAYMNWYQQKPGQAPRVLIYSVFNLESGIPARFSGSGSGTDFTLTISSLEPEDFAVYYCQQSHEVPYTFGQGTKLEIK | 38
3 | hu16 (antibody, V domains shown, 1B2 HC-2/1A2 LC2-3) VH: QVQLVQSGAEVKKPGASVKVSCKASGYTFTDYNMHWVRQAPGQRLEWMGYIFPYNGVAVYNRKFRSRVTLTVDTSSSTAYMELSSLRSEDTAVYYCAREGLGGYWGQGTLVTVSS VL: EIVLTQSPATLSLSPGERATLSCKASQNIDYDGYAYLNWYQQKPGQAPRVLIYSVFNLESGIPARFSGSGSGTDFTLTISSLEPEDFAVYYCQQSNEFPYTFGQGTKLEIK | 39
4 | hu19 (antibody, V domains shown, 1B2 HC-2/1F5 LC1-2) VH: QVQLVQSGAEVKKPGASVKVSCKASGYTFTDYNMHWVRQAPGQRLEWMGYIFPYNGVAVYNRKFRSRVTLTVDTSSSTAYMELSSLRSEDTAVYYCAREGLGGYWGQGTLVTVSS VL: EIVLTQSPATLSLSPGERATLSCKASQNIDFDGYAYMNWYQHKPGQAPRVLIYSVFNLESGIPARFSGSGSGTDFTLTISSLEPEDFAVYYCQQSHEVPYTFGQGTKLEIK | 73
5 | hu3 (antibody, V domains shown, 1B2 HC-1/1A2 LC2-3) VH: QVQLVQSGAEVKKPGASVKVSCKASGYTFTDYNMHWVRQAPGQGLEWMGYIFPYNGVAVYNRKFRSRVTLTIDTSSSTAYMELRSLRSDDTAVYYCAREGLGGYWGQGTLVTVSS VL: EIVLTQSPATLSLSPGERATLSCKASQNIDYDGYAYLNWYQQKPGQAPRVLIYSVFNLESGIPARFSGSGSGTDFTLTISSLEPEDFAVYYCQQSNEFPYTFGQGTKLEIK | 41
6 | hu6 (antibody, V domains shown, 1B2 HC-1/1F5 LC1-2) VH: QVQLVQSGAEVKKPGASVKVSCKASGYTFTDYNMHWVRQAPGQGLEWMGYIFPYNGVAVYNRKFRSRVTLTIDTSSSTAYMELRSLRSDDTAVYYCAREGLGGYWGQGTLVTVSS VL: EIVLTQSPATLSLSPGERATLSCKASQNIDFDGYAYMNWYQHKPGQAPRVLIYSVFNLESGIPARFSGSGSGTDFTLTISSLEPEDFAVYYCQQSHEVPYTFGQGTKLEIK | 93
7 | hu18 (antibody, V domains shown, 1B2 HC-2/1F5 LC1-1) VH: QVQLVQSGAEVKKPGASVKVSCKASGYTFTDYNMHWVRQAPGQRLEWMGYIFPYNGVAVYNRKFRSRVTLTVDTSSSTAYMELSSLRSEDTAVYYCAREGLGGYWGQGTLVTVSS VL: EIVLTQSPATLSLSPGERATLSCKASQNIDFDGYAYMNWYQQKPGQAPRVLIYSVFNLESGIPARFSGSGSGTDFTLTISSLEPEDFAVYYCQQSHEVPYTFGQGTKLEIK | 67
8 | hu5 (antibody, V domains shown, 1B2 HC-1/1F5 LC1-1) VH: QVQLVQSGAEVKKPGASVKVSCKASGYTFTDYNMHWVRQAPGQGLEWMGYIFPYNGVAVYNRKFRSRVTLTIDTSSSTAYMELRSLRSDDTAVYYCAREGLGGYWGQGTLVTVSS VL: EIVLTQSPATLSLSPGERATLSCKASQNIDFDGYAYMNWYQQKPGQAPRVLIYSVFNLESGIPARFSGSGSGTDFTLTISSLEPEDFAVYYCQQSHEVPYTFGQGTKLEIK | 88
